# According to US5463022A, “N-acetylcarboxymethylchitosan derivatives and process for preparation thereof” (priority 1990, dated 1995):
# Tests used:
# [1] = Plasma concentration of 3H-labeled complexes in tumor-bearing rats (AUC); format: in vivo, female Wistar rats; settings: 10 mg/Kg; for AUCo-oo in Plasma: carotids; for increase of retention in blood compared with the referential complexes (AUC): ratio to referential complexes
# Experimental: Thus, the complexes which were obtained as the final products of Examples 17, 18 and 19 above and had the polyethylene glycol (PEG) contents of 6%, 21% and 43%, respectively, and of which the MTX portions were labelled with ^3 H, were prepared and employed as the ^3 H-labeled test compounds for use as Test Samples 1, 2 and 3. Further, the complexes same as those above-mentioned complexes except that the PEG portion was eliminated therefrom and the MTX portion was ^3 H-labeled, were also prepared and used as referential ^3 H-labeled compounds. In each of the complexes used as Test Samples 1, 2 and 3 and the complexes used as the referential complexes, the peptide chain which was bonded to the 2-amino group of the carboxymethylglucosamine unit of these tested complexes was Gly-Phe-Phe. The PEG portion present in the complexes as Test Samples 1, 2 and 3 was the PEG1 (molecular weight: 5,000) as described in Example 17.
# In the following experiment, there were employed such tumor-bearing female Wistar rats which had received the subcutaneous transplantation of cancer cells, Walker 256, to an inguinal part and subsequently had been raised for 6 days. Each solution of the test sample was prepared for administration, by suitably diluting the ^3 H-labeled test sample complex with a solution of a corresponding non-radioactively labeled complex in physiological saline. Using three rats per group, the solution of the test sample was administered into the carotids of rats at a dose of 10 mg/Kg of the complex.
# Under ether anesthesia, blood was sampled from the carotid of rats periodically at the ends of 30 minutes, 1 hour, 2 hours, 4 hours and 6 hours after the administration, and the blood was centrifuged to separate the plasma. Upon elapsed time of 24 hours after the administration, blood was collected from rats under ether enesthesia until the rats were sacrificed under exsanguination. Several tissues and organs were separated from the sacrificed rats. After weighing the whole or some parts of the tissues and organs, their radioactivities were measured.
# The radioactivity of the tissues separated was measured in the following manner. After each sample of tissue was collected in a combustion cone and was dried, the sample was combusted in an automatic sample-combusting apparatus ("ASC-113", ALOKA). The resulting ^3 H2 O was added to a scintillator ("AQUASOL-2", NEN) and then measured by liquid scintillation counter ("LSC-3600", ALOKA). The value of radioactivity so measured was calibrated by the external standard radiation source method.
# The test results are presented in FIG. 29 and FIG. 30 of the accompanying drawings as well as in Table 1 given hereinafter. FIG. 29 is a graph showing time-dependent variations in the concentration of each sample complex present in the plasma as measured up to the end of 24 hours after the administration of the complex. FIG. 30 is a graph showing the distributions of each sample complex present in tissues of the rat body which are expressed as the concentration of the complex in term of the percentages on the basis of the dose of the complex.
# [2] = tested on: Walker 256; assay: Concentration of 3H-labeled complexes in tumor (Walker 256) of rats; format: in vivo, female Wistar rats; settings: 10 mg/Kg, carotids, 1440 min
# Experimental: The radioactivity of the tissues separated was measured in the following manner. […] The resulting ^3 H2 O was added to a scintillator ("AQUASOL-2", NEN) and then measured by liquid scintillation counter ("LSC-3600", ALOKA). The value of radioactivity so measured was calibrated by the external standard radiation source method.
# [3] = tested on: Sarcoma 180; assay: Concentration of 3H-labeled compound in cancer tissue (Sarcoma 180) of mice; format: in vivo, male ICR mice; settings: 20 mg/Kg, caudal vein, up to 24 hours, FIG. 19
# From the text: (§1) The N-acetylcarboxymethylchitosan--Gly-Gly-Gly--MTX complex of Example 2, in which the MTX portion had been ^3 H-labeled, was used as a test sample compound. In addition, an ^3 H-labeled product of the partially N-acetylated carboxymethylchitosan as obtained in the course of the process of Example 1 was employed as a referential sample.
# (§2) In the following experiment, there were employed tumor-bearing male ICR mice which had received subcutaneous implantation of Sarcoma 180 and subsequently had been raised for 10 days. The test sample compound was dissolved in physiological saline. Using three mice per group, the solution of the test sample compound was administered at a dose of 20 mg/Kg through the caudal vein. At the ends of 15 minutes, 30 minutes, 1 hour, 2 hours, 6 hours and 24 hours after the administration, the femoral artery and femoral vein of the mice of the respective groups were cut to collect blood samples. The radioactivity of a serum sample, which had been obtained by centrifuging each of the blood samples, and the radioactivity of a cancer tissue taken from the corresponding mouse were measured by the combustion method. In this way, the concentrations of the test sample compound present in the serum and the cancer tissue were evaluated.
# (§3) The test results are plotted in FIGS. 18 and 19 of the accompanying drawings. […]
# [4] = Serum concentration of 3H-labeled compound after i.v. administration in tumor-bearing mice; format: in vivo, male ICR mice; settings: 20 mg/Kg, caudal vein, 15 minutes to 24 hours, FIG. 18
# From the text: as §1, §2, §3
Substance,AUCo-oo in Plasma [1],increase of retention in blood compared with the referential complexes (AUC) [1],Concentration of Sample in Tumor at end of 24 hrs [2],concentration in cancer tissue versus simple polysaccharide [3],retention in blood versus simple polysaccharide referential sample [4]
N-acetylcarboxymethylchitosan-(PEG1)--Gly-Phe-Phe--MTX [Test Sample 2],46.20 % of dose · hr/ml,about 3 times,0.35 % of dose/g,,
N-acetylcarboxymethylchitosan-(PEG1)--Gly-Phe-Phe--MTX [Test Sample 1],20.85 % of dose · hr/ml,about 1.3 times,0.22 % of dose/g,,
N-acetylcarboxymethylchitosan-(PEG1)--Gly-Phe-Phe--MTX [Test Sample 3],45.52 % of dose · hr/ml,about 3 times,0.44 % of dose/g,,
N-acetylcarboxymethylchitosan--Gly-Gly-Gly--MTX [Example 2],,,,can concentrate in a cancer tissue,comparable to or longer than the retention of the simple polysaccharide
